Measurements from patent WO2014208760A1 (dated 2014).

T1: 67LR 161-170 peptide
T1 construct: Synthetic peptide coated on the ELISA plate at 10 ug/mL; also called ESM peptide; EGCG sensing motif (ESM)
T1 peptide: IPCNNKGAHS

T2: Control peptide
T2 construct: Coated on the ELISA plate at 10 ug/mL
T2 peptide: MNAANVGWNGSTFA

B1: ESM-8 antibody (ESM-8 monoclonal antibody) (antibody, V domains shown)
VH: QVQLKQSGPGLVQPSQSLSITCTVSGFSLTTYGVHWVRQSPGKGLEWLGVIWSGGNTDYNAAFMSRLSISKDNSKSQVFFKMNSLRTTDTAIYYCARNSLLLPFDVWGAGTTVTVSS
VL: DVVMTQTPLSLPVSLGDQASISCRSSQSLVHSNGYTYLHWYLQKPGQSPKLLIYKVSNRFSGVPDRFSGSASGTDFTLKISRVEAEDLGVYFCSQSTHVPWTFGGGTKLEIK
notes: it was detected with anti-mouse IgG and compared with Control mIgG; also called monoclonal antibody ESM-8; EMS-8 antibody
B2: ESM-16 antibody (ESM-16 monoclonal antibody) (antibody, V domains shown)
VH: EVMLVESGGGLVKPGGSLKLSCAASGFTFSSYAMSWVRQTPEKRLEWVATISSGGSYTYYPDSVKGRFTISRDNAKNTLYLQMSSLRSEDTAMYYCARNWDLDYWGQGTTLTVSS
VL: DIVMTQSPATLSVTPGDRVSLSCRASQSISDYLHWYQQKSHESPRLLIKYASQSISGIPSRFSGSGSGSDFTLSINSVEPEDVGVYYCQNGHSFPYTFGGGTKLEIK
notes: Mouse hybridoma antibody; in flow cytometry it was detected with goat anti-mouse IgM and compared with Isotype Control mIgM, which points to IgM; also called monoclonal antibody ESM-16; EMS-16 antibody

Assays:
67LR 161-170 peptide = target: T1, 67LR 161-170 peptide; test: ELISA of hybridoma culture supernatant on coated 67LR 161-170 peptide
Control peptide [1] = target: T2, Control peptide; test: ELISA, peptide coated at 10 ug/mL, HRP anti-mouse IgG, absorbance at 405 nm
[2] = target: 67 kDa laminin receptor protein (human, UniProt P08865 2-295); test: cell-based or functional assay
Control peptide [3] = target: T2, Control peptide; test: ELISA, peptide coated at 10 ug/mL, done as for ESM-8

| Binder | binding result (67LR 161-170 peptide) | binding result (Control peptide [1]) | acidic sphingomyelinase activity in HL60 cells (TLC of BODIPY-C12-sphingomyelin), relative to Control mIgG [2] [times] | binding result (Control peptide [3]) |
| --- | --- | --- | --- | --- |
| B1 | binds | no binding | ~3 | – |
| B2 | binds | – | – | no binding |
